Test system: Saccharomyces cerevisiae
Test: transcriptional activation domain activity (GFP:mCherry ratio, weighted mean of sorted bins, harmonized to initial dataset scale) (arbitrary fluorescence ratio units); higher = stronger transcriptional activation
Settings: beta-estradiol 1 µM; induction time 4 h
Protocol: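 53-aa protein tiles (fungal proteins plus yeast TF control tiles) fused C-terminally to a DBD-estrogen-binding domain-mCherry synthetic TF, integrated in S. cerevisiae (URA3 locus) with a GFP reporter. Cells were induced with 1 uM beta-estradiol for 4 h at 30 C, FACS-sorted into 8 bins by GFP:mCherry ratio and barcodes sequenced. Activity is the read-weighted mean bin fluorescence (GFP:mCherry), averaged over barcodes (median 12); tiles under 50 reads were discarded. New active-learning values were harmonized by linear fit onto the scale of the initial (Hummel et al.) dataset. The assay saturates at low and high signal.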

## GLAELAAALDDSDVQYAYARVEYANDAESKRVKFVLIVWIGSGTKVMRKGRAG
  transcriptional activation domain activity: 42200

## EDEEEEEEEQEEEEEKEEEVLWAAAPEGGKPVEEEEEEEVVEAEEKKPGEEDA
  transcriptional activation domain activity: 24500

## NIQSFDAIYFAALQVIIVSSANGWSPLMYQMMDSEFFVSCVFFIICIVVLNFW
  transcriptional activation domain activity: 61500

## MISFVSIVSILLAKSAFLFYFLRQDSFLPNLVFCLCISLLLLLVCLLQWLLVC
  transcriptional activation domain activity: 53700

## AAQAPANDGFSEVQHNRGGRGRGGQDQGEGRGGYRGRGRGGRGGGEFRGRGRG
  transcriptional activation domain activity: 55800

## DDDDDDVETHSIVHSDLLNDMDSASQRASHNASGFPNFLDTSCSSSFDDHFIF
  transcriptional activation domain activity: 69100

## IGLQVLLGWSYVMINPLAIYSSPYLILFSFSSLVYLVLVNVLTLPSSLPFFHP
  transcriptional activation domain activity: 87600

## TVGVLILWCWLRLIQKALEKLHVKQIKTGHYGSPPLKNMLLPWLKQTFIFVLA
  transcriptional activation domain activity: 69100

## GKGHYVTFSFVMADIILGMSAPMLRICVCHCVPQRQRKSNIILLQIILLFYER
  transcriptional activation domain activity: 54500

## PDFYPLFYSRLIPLSVISFLVYTALFFLVFWPQYLFLVIFHGWGAWPTAIILF
  transcriptional activation domain activity: 52600

## LHFFLAFIFLLSAYFHVRGRDLTYYGVWPSMVVWGLDRFLRLLRIGVFNFRYI
  transcriptional activation domain activity: 42000

## RQRKDNHKEVERRRRGNINEGINELGRIVPNGSGEKAKGAILSRAVQYIHHLK
  transcriptional activation domain activity: 13600

## CDTVAHSAGRRERGRKQAGKRNDKERREGEERGKTGKTKRRGVARAGTGASAS
  transcriptional activation domain activity: 14800

## KVERGREVRKKAREEREKRGATGGGRGKGRGKGKGKGRDGERGKSAAEEGAGA
  transcriptional activation domain activity: 10800

## MGGYLFHLLFFSFFLFSSLLRVYYYIVDMGGVLSLLYRFFLLLVTIFVRCIIF
  transcriptional activation domain activity: 57100

## RLHTLRMPISWPLLGLARRRLASLRTFAVWIKPRHSSLTAAERLAFTQFLAAH
  transcriptional activation domain activity: 79000

## SFTSKLNNPQFLGSLDLEILEELEKLISAQEFSRNFTEDVDESLQSEIDLMNY
  transcriptional activation domain activity: 146000

## CILVYLCHVSYLILLPRFDYVYNIIFNMVIGLTHNALWLLYSLPTSISLFRRF
  transcriptional activation domain activity: 53500

## MIHGLQSYNLSFLIFFLFLLSSLFVLFVMLSKFAFVLFVDTLYCLIPYVFLFF
  transcriptional activation domain activity: 42500

## KVEIRERDARSVVKLRSGANVPVTESTHGLDGGTGQDVHILVAQTKSKKFNRH
  transcriptional activation domain activity: 49800

## ARLLPDTIHLYILVVASLVNTLCVLFLDCCFLLLFFLFFYFFYPFLLFLFASF
  transcriptional activation domain activity: 41200

## KLLNYLQMDRAKVVSFTIFVFVWSYFRHYLNLVILWSVWTQYDLIPQFARRWV
  transcriptional activation domain activity: 40000

## MFSWLYLSYFQPLWRAFISLFIFLRTLHQSSPSIFFISIILLFICFPLAMFAV
  transcriptional activation domain activity: 19200

## EAEVTATGEKSSPARVVVLRARAADAGKLVSIAEIAKREIEKGTGGQGGGSGG
  transcriptional activation domain activity: 18100

## APIDCPHRRLEVIMGLRPTRHIVLSILGLVITGFVSMDRADCIEFLLDLEPGD
  transcriptional activation domain activity: 39800

## CDNIYLQQDQCGYVLEHCMDATPGLFNYIQLYYCSSFRPLVFIFMCGWLLFLF
  transcriptional activation domain activity: 54900

## MRRFSLFFSLSSLCLWLYVCWIGWIDGFLLVDVMVHLQHVYCVLTILIFLFSL
  transcriptional activation domain activity: 22300

## MYNNIHIPFFVLFLFFFFLSLFFFFFSLIFFFSFYCILTLCWYAFCLFFLKKN
  transcriptional activation domain activity: 34700

## QQQQQQQQQQQQQQQQQSLDTLLHHYQSLLSKSDNAIAFDDNVSNSADHNGSN
  transcriptional activation domain activity: 22600

## MDILDIFFLFYSLLVSFLFFFLLITLLFLSPFISISFYFLTAFYVYFWVFFRA
  transcriptional activation domain activity: 34100

## FHYGGRADVTSVFTVEARTSLTVDDFRKRILLAWANLRLHHVLLMSTVLRDSA
  transcriptional activation domain activity: 65000

## FLLLMFQGLDIFTPVIRVLHFRICLLLLLLIILLAVPLLFSYIIFSRPFLSLV
  transcriptional activation domain activity: 43900

## MLTIYFPLLLFLCFHFFNRVKVWWVWVWGRVKLGWVYWFLYLCIWKGGWIRNR
  transcriptional activation domain activity: 48300

## GQSGLGLEFNLPDFPLISIIFLIFFITLGLLWLVIVYLANFPDAFTLPVWLWH
  transcriptional activation domain activity: 29500

## LSTVLKWSYEEIQVHIMTMRKEILNRRNHAYYDMYVLLLQLLLHIADSLTRGS
  transcriptional activation domain activity: 45500

## MTFVSEALITHRIDGGDIGVVNIFSKNKWRSKVYVRILVQICMRWVMMAIYLN
  transcriptional activation domain activity: 55700

## MAPCIPVMYLSVSSTSFLFLSFFILGWWILFSFTIFPATNSFLCFWAPFFFSH
  transcriptional activation domain activity: 46100

## APDQPLTTQGKPRTRVYVACIQCRSRKIRCDGAKPVCHNCSHRASSAVGGVLE
  transcriptional activation domain activity: 18000

## PAAATPAVSIGLIYLIIMAFFSFSFFLPIHMKYIQPQGHPPLHFWQLIIWRWL
  transcriptional activation domain activity: 52700

## MVGLVGFWVLFLFFLCPFLFSCPLPLPPLRPSLYIFQISYGSFFFLLFFSIFF
  transcriptional activation domain activity: 62300

## FSIVACVVGCQDSEWGLQFSHERCFTLHTLGHLSQFEKIVVVLIACKLLLFSK
  transcriptional activation domain activity: 65200

## NFFLKDNAPVLQEYLAVFRHLLSFHDPELSSHLDTIGFMPDLYAIPWFLTLFT
  transcriptional activation domain activity: 16300

## KGGGAGGGKRAKKEESSDDEAAKPLAKRGKGTANGRANGKARASSAAPVDNQK
  transcriptional activation domain activity: 44600

## MCIICVLYVYYMYICFVCVHCICFYIFVHRFCLSVCMFFFFFFFFVCFINIIL
  transcriptional activation domain activity: 69900

## MSFLYFIRCFVSFHLELLDCYYMMIECLFIFLIFCITICLPFICLYSLLVECF
  transcriptional activation domain activity: 49800

## MPQESKGKASAAAQRAHEKESKRARGALSCAECRRLKLKCDKSVPCSSCVRRG
  transcriptional activation domain activity: 44700

## FSMRFVVLIDLFATFLQPASIIYVLYLIYVAAFDKATAFPMISLIMLACIYGL
  transcriptional activation domain activity: 17000

## VPLCIAVLLLLAPHPSILHVLLNYHYLTLHSTRYFLAHLFVIYTISFLAFSSL
  transcriptional activation domain activity: 47400

## MVQAVIRLILDYCRYLVVSFYQFCLCCYSPLMCVPGHGIMLITSLFLKLIHVI
  transcriptional activation domain activity: 58200

## MRFLFFLLLFLFFFPPPLPPISSLQGCFFVIFFFGFFIFSSFLLFYAVFFFIV
  transcriptional activation domain activity: 39000

## ETAPATEEKPVEETKPAEEAAKTEEEKKEDEAKPIEEGHLNHKAQGLSFPKNL
  transcriptional activation domain activity: 55000

## LQSPLYGRHILVAQQLVYYGCVILFPWLFISCALMFKFRGSWLLLYGMIDLSL
  transcriptional activation domain activity: 44100

## HCIEAGIKLVSQFIDMYKEFSPGGKLCQVCWMLTNFSMNDFLLGVMVLCLVIH
  transcriptional activation domain activity: 56200

## MTLLVGYLGVFFLLFSSPSLLEFFFFVTYRVFVVFFFSSSFFFLGYPVFFFFF
  transcriptional activation domain activity: 36600

## LSHSFFSSCCCLLRTLGRFLLFIIFFLSFYFLPFFFSFQTYLLLYLLLIVYFH
  transcriptional activation domain activity: 29700

## SYQHLHSVMKVINCLNLMLVVCYFSDVRYLKVLVKFWNELHNDVVSRNKLIIV
  transcriptional activation domain activity: 42300

## WSVMSCLYLVVRYFGIFLALLCGFWGGLLYIPESVSYGLIVLIEWGFSVYFWF
  transcriptional activation domain activity: 41400

## MADAVADAAANLKLEEGAAENAPKLQLDEETGEWVSKGELKKRLAKRAKKASK
  transcriptional activation domain activity: 14100

## MLSFVIVRLLTSHLQLVWRAALLLCKPLCICPLQFLYDRESHYNLLCNEAVVF
  transcriptional activation domain activity: 68500

## NGHGTHCSGTVAGKKYGVAKKANVYAVKVLRSNGSGTMSDVVKGVEEAVKMHN
  transcriptional activation domain activity: 37500

## DGDEEDAKDGRKKKKKKRLPKSPIGNPGEKLGFVILGAQHAREWVATSAALYL
  transcriptional activation domain activity: 35700

## GMIGFDPNVSLEKIYHGRFKDILHKGIQIADRTFTFLGFSHSSLRGHTCWFAA
  transcriptional activation domain activity: 75600

## IHLFISSFPLLFICSLPYAFLSFFPHLFISYFLSSFYSLSTHLFHSFFPFLVI
  transcriptional activation domain activity: 59400

## VRVLGHDTLYFLTLYLLKAELFFVFFFFLFFRYMLEKRTVIKFTFFFYPCLFE
  transcriptional activation domain activity: 54700

## FVLYFFFFFFLFFFFASGLVFFIRLFFFCAVFSASPYSCCCYYFNCAYPIYVL
  transcriptional activation domain activity: 55700

## ADNNDDEDQDEEEATPAPKPRGGRAPKAAAAATKKSAAAKKAPATRGRKKIIE
  transcriptional activation domain activity: 33500

## EVHLHIRKVYRHYDDLEHLGRRKFNFLTLVIRHLLDIVGIDSPWALFSRKPQQ
  transcriptional activation domain activity: 63000

## MPTLLVSLCSFFPWPLFLSFLFLVFHTFASLVIVQKSHFILSYILIMHLSFFA
  transcriptional activation domain activity: 46300

## VSMMQRILNIVCILPSLLERYDTLVALSETSNLGEVERLWIDCHAFLTNLRIW
  transcriptional activation domain activity: 62400

## MVPPRRESAATGASQRAAIACQSCRLRKVKCDAESAASDQGCTPCRRARQECV
  transcriptional activation domain activity: 26600

## KEKEKQERDARRREKEGAAAAAAGEKRKVEEGSAGGEAVKKAKVGAAAAAVAA
  transcriptional activation domain activity: 47800
